According to patent US5503975, “Mechanism based inhibitors of DNA methyltransferase” (City of Hope):

Biological target: DNA (cytosine-5) methyltransferase (Homo sapiens, UniProt P26358 P26358:1-1616)
Experiment: tritiated AdoMet methyl transfer, 37 C, HEPES pH 7.0, 50 mM NaCl, 75 uM spermine; methyl at short arm end stimulates rate
Conditions: tags: none; purified from human placenta (partially purified/crude preparation for the covalent complexes); gapped foldback with L5 linker loop
Method: For the determination of initial velocities with oligodeoxynucleotide substrates, the enzyme was dialyzed for 3 hours in a Hoefer microdialyzer (Health Products Inc., Rockford, Ill.) against 38 mM glycine, 17% v/v glycerol, 5 mM Tris, 10 mM β-mercaptoethanol, pH 7.8 at 4° C. The final reaction volume of 100 μl contained: 0.4 μg total DNA, 50 mM HEPES pH 7.0, 50 mM NaCl, 2 mM DTT, 75 μM Spermine, 10% v/v glycerol and […] [^3H]AdoMet (Amersham, 15 Ci/mmole). Reaction mixtures were preincubated at 37° C. for 15 minutes before the addition of 44 U of DNA methyltransferase to initiate the reaction. The reaction rate was linear under these conditions for 30 minutes. After 20 minutes of incubation, the reactions were stopped by the addition of 5 ml of cold TCA (5% w/v TCA containing 5 mM potassium pyrophosphate). Tritium incorporated into TCA insoluble DNA was determined as previously described (Smith, S. S., supra).

Sequence of DNA (cytosine-5) methyltransferase (P26358 whole entry, one chain of several): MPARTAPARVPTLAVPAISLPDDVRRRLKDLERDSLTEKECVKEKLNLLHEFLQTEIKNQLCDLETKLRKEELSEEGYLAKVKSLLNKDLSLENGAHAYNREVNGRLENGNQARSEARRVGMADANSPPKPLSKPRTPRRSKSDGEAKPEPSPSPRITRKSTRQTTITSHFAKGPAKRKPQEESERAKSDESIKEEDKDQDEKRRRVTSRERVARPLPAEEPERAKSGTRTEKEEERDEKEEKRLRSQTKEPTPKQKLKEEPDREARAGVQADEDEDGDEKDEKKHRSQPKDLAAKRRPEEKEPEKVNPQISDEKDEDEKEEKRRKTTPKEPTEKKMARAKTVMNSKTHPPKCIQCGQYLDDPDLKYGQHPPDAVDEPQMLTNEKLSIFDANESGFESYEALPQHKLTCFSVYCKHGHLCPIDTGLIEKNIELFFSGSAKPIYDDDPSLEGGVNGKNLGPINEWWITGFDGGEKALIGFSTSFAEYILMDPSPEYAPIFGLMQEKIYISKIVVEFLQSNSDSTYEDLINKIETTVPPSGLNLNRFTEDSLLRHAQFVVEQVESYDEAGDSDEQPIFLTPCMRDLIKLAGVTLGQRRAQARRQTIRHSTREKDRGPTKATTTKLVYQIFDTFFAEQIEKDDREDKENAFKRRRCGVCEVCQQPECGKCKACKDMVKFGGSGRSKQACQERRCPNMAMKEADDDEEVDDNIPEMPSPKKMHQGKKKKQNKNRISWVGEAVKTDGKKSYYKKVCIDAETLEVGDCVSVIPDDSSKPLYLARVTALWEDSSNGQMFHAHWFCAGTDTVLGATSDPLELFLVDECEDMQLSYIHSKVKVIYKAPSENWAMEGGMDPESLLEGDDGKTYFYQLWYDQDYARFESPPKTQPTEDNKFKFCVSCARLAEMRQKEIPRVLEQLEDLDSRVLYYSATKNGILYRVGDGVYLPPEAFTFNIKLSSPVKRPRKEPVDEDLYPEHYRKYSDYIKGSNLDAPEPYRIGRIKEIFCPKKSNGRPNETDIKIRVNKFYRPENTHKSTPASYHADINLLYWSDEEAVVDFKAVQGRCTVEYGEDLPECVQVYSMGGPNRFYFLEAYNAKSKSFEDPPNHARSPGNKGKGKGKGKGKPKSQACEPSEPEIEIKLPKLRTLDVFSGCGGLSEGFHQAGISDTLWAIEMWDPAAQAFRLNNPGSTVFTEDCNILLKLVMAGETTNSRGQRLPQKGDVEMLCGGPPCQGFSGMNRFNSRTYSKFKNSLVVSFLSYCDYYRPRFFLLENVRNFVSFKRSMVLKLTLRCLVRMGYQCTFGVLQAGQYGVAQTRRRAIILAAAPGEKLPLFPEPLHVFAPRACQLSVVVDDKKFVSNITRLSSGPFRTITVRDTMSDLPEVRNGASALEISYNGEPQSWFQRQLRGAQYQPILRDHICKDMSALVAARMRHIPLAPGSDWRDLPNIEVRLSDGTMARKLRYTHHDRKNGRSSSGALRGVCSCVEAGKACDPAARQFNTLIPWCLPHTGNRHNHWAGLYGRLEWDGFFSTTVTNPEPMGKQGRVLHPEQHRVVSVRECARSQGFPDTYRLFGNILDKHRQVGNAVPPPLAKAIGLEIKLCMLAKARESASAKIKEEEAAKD

B1: 48L-1 (structured_DNA)
DNA: TCGAGGCCAGGTAGCCCGGATCTGGTGGACGTCCACCAGATCC
modifications: five non-nucleotide linker units between 30mer and 13mer; 5mC at end of short arm
Question: B1 was tested. Which activity did it give?
Answer: > 100 fold stimulation
